Measurements as given in paper PMC4266902, “Néstor-Guillermo Progeria Syndrome: a biochemical insight into Barrier-to-Autointegration Factor 1, alanine 12 threonine mutation” (BMC Molecular Biology, 2014).
Positions count from the first letter of the chain named. Names and notes keep the numbering of the source.

B1: FAM-labelled short dsDNA (dsDNA)
DNA 1: CTCTCCCTTCGCTCCTTTCCTCT
DNA 2: AGAGGAAAGGAGCGAAGGGAGAG
B2: recombinant HexaHis-tagged wild type BANF1 (Barrier-to-Autointegration Factor 1) (natural protein, human, UniProt O75531 1-89, looked up)
chain: MTTSQKHRDFVAEPMGEKPVGSLAGIGEVLGKKLEERGFDKAYVVLGQFLVLKKDEDLFREWLKDTCGANAKQSRDCFGCLREWCDAFL
notes: Barrier-to-Autointegration Factor 1 (BANF1, BAF1), human, 89 amino acid residues; BANF1 CDS sub-cloned into pEX-N-His (Origene); also called BANF1 WT; WT BANF1; not shown: His6, N-terminal, kept
B3: recombinant HexaHis-tagged A12T BANF1 (natural protein, human, UniProt O75531 1-89, looked up)
chain: B2 chain with A12T
notes: Barrier-to-Autointegration Factor 1 (BANF1, BAF1), human, 89 amino acid residues; BANF1 CDS in pEX-N-His (Origene) with the patient mutation c.34G>A [p.A12T] made by site-directed mutagenesis; A12T is the mutation found in patients with Nestor-Guillermo Progeria Syndrome; also called BANF1 A12T; A12T mutant; not shown: His6, N-terminal, kept

What was measured:
[1] = target: T1, BANF1 WT (UniProt O75531 1-89); assay: EMSA; 0-1 uM protein, 10 nM DNA, 30 min 4 C; 10 mM Tris-HCl pH 7.0, 20 mM NaCl, 100 ng/mL BSA, 5 mM DTT, 30 min at 4 C; 7% PAGE 0.5x TBE at 4 C (short DNA) or 0.6% agarose 1x TBE (plasmid); settings: protein: recombinant; tags: N-terminal His6; label: 5'-FAM on strand 1; blunt
T1 sequence: B2 chain

[2] = target: the molecule itself; assay: SEC; gel filtration of recombinant HexaHis BANF1, absorbance at 280 nm against elution volume; column calibrated with carbonic anhydrase (29 kDa) and myoglobin (17 kDa)

| Binder | binding result [1] | stoichiometry N [2] |
| --- | --- | --- |
| B1 | binds | – |
| B2 | – | 2 |
| B3 | – | 2 |
